Source: the DeepSol protein solubility set

Test: soluble on expression in E. coli; label from the status in PepcDB or PDB records

Sequence	soluble on expression in E. coli
MITFEKVTVENESVVKEMFKSHSLGEKKVQYCVKVDDTYIGVIDYSVQEERAVLSQLIIHFDYQGYGYGTNTYFTFEEMMKQRNVKEIKVLKEKLTEKAKSFIESFGFTSEDEEYVKKI	not soluble
MITQVNQLDELQLKDLKTLRAECKKNDGSIPNLYIHILKQHRSLPTSFLYYQNGALIGFLSIYFFYDDAVEVAVLVSPQYRRQGIAKQLIKEALPLIKSQNYFNLIFSCPSRLNDNWLTSKGFTYLHSEYFMERDDLNPILDYIRPLSFRMATLEDIPILCGLDEVCFPDKNQDSVHRFQQILNEREYEIVIAMLNNHPIGKSHIRWQTKRATLSDIAILPKEQGKGFGSALIAHCINMILSEGKSRVDLDVETHNKKALNLYIQLGFHIQNACDYWSINVNQLAK	not soluble
MITSPFERELKLLNEGELGIVQQLVESSNIGFIVDLELDGDYGWAVYKPELGEQPLWDFPPGLYKRERAAFVISEFLGWNIVPPTVIMHDAPAGVGSVQWFIENNGEHYFPLFDTRADLHPQFVRMAVFDLLCNNTDRKAGHVLLDGDHIWGIDHGLCFSVEPKLRTVIWDFAGCTIPDDLVTDVEQLLEDVPEELHQLLHPAEIDALQRRASRISRLPFLPQAKSHRQFPWPLVLEHHHHHH	soluble
MITTRLHGRLGNQMFQYAAARGLAARLGTQVALDTRLAESRGEGVLTRVFDLDLAQPDQLPPLKGDGLLRHGAWRLLGLAPRFRREHGLGYNAAIETWDDGTYLHGYWQSERYFAHIAARIRADFAFPAFSNSQNAEMAARIGDTDAISLHVRRGDYVALAAHTLCDQRYYAAALTRLLEGVAGDPVVYLFSDDPAWARDNLALPVQKVVVDFNGPETDFEDMRLMSLCRHNIIGNSSFSWWAAWLNAHPGKRIAAPASWFGDAKLHNPDLLPPDWLKIEVLEHHHHHH	not soluble
MIVDMRLRPPIPGFARSTLYQAGPKTSHPDFPVEPSVGQCSLPLLISEMDAAGVAVGVVPGRYSMEPFGIVSNDELATLFADHPGRFVGFMGLDLGWPMQRMLDEIDARVGTPGFRGVALEPTISADASFCGMNDKRLYPIYEACVKHGVPVSVTLSAVLQAFTKRPYEHSNPVQAYQVAIDFPGLDIVIAHAAYPWVMEMIGVCLTCPNVWLSPDLYLTNVFPGAQEYAKAAATYLPRRTLFGTGYPAKPFKPMIDAYAAWGWPQDVVAAILGGNAARLLRLADQLEHHHHHH	not soluble
MIVHELTDIGHLFTEQLQEGYYVIRETYQNVLVEPEDGDTVRQVDAGTEEVVTIVFDPGDEYSLICLDTYTFADGIPSLAELKETIAAEYDVFVNDRWAAPSL	not soluble
MIVIPMAGMSSRFFKAGYTQPKYMLEAHGQTLFEHSVNSFAAYFASTPFLFIVRNVYDTAVFVREKATQLGIKQFYIAELHTETRGQAETVTLGLEELAKQGVDYQGSITVFNIDTFRPNFVFPDISQHSDGYLEVFQGGGDNWSFAKPEHAGSTKVIQTAEKNPISDLCSTGLYHFNRKEDYLEAYREYVARPSQEWERGELYIAPLYNLLIQKGLNIHYHLIARHEVIFCGVPDEYTDFLRQPQPLEHHHHHH	soluble
MIVNEINSSEEVLQIEQIDVEGQRAEYNRIQQERQDYQYAMRFAVHVDQVAVQALPIPAQSPEHLVAEHSNAQVPVDARPNPPTQSPAPRAAPDHGPVQAPRNLAQALNLPRRARGRPRRSDVRRTRDAQDSVATQQGPNAEQSGILVPPASRQQPEHSATSTISAPLSPASSTNMALQNAPSDHGDQLIRDSSEDRQNVPAPRRSARIASHTQYRTSPYVSARQGHRLAIARGRAAPGTLDPSASRQSIPSTSDAPVLVPHAPPAPPSPTLQDCVICMEEPVNPKVCPKCLKMIGCAKCFRWWTVFRCWWQSSLNPSCPLCRLKWDSAPKVIAAKKFYDGK	not soluble
MIVRSYLYEKLNGDVRCKTCWHRCIIKEGKTGICRVRKNEGGELLVLNYGMASSIALDPIEKKPLNNFKPGSKVLSFGSVSCNFRCLHCQNFEIAFADLDYSYLREIDPDTVLRMCIDRRADGVAWTYNEPAIWHEFALDSSKLVKESGYYVVYVTNGYMTPEAVDQFEGVLDAANVDVKAFSEDFYKKICKAKLEHVLETVEYLHRKGVFVELTYLIIPGENDSREELRDFCRWVADLSPKIPVHFSRFHPDYKMLDKPPTPVEKIEEAVEIAKKEGIEYVYAGNVWGHRYENTYCPNCGELLIEREGFYVYNINLVRDNPPKCPNCGYAQNIIL	not soluble
MIYDVFLNFSGEDVRGTFLNHFFKELERKSIIAFKDNESERSQNLSPELTHAIRESRITVVVFSKNYSSSTWCLNELLQVYECYQSMDLPVIPIFYGLDPSHVRKQTGEFGKNFEKTCRNETEACVYQWRRALCDVSNFLGYHSPNWANEATMIEQVANDVLFKLNLTPSSDFSEFVGIEDHIAAMNSVDKR	soluble
MIYSMTAFAHLELKKEWGNAVWEMRSVNQRFLETYFRLPEQFRHLEMSLRERLRSALTRGKVECSLRIELTNSQDKELSLNKDYAEKVIGSLQTLQALAGGGQINLVDLLRYPGVVDSQTQDLDQIGQDLCAGFEEILADFIAMRAREGANLQQLIQQRLDSISKIATQVQAQMPAILQWQKEKLQQRFDELNLQLESQRLEQEIVLTAQRVDVAEELDRLQLHVKETMAILQRGGAVGRKLDFMMQELNRESNTLASKSINADVTNSAVELKVLIEQMREQIQNLE	not soluble
MIYSVGNRLGNKLTGIEKAMINRHNLFKNHSITSKLIFASWSPRLHFNASLFQIEDDDILSLYDVLQDSINIKSIHKDWITHWTKECNYTLKFIENTNDIKIYEKSNYRMYVHFNDSNYQHLDYINHFDVNQRKIRRDLYDSRGFLSCSRTLTTNQKVVCEHYYTPEGTIKFQKFFNPELENSQSQLIIYNTDSQLKYFNNDQELLAFAIEKLYKNGDIFLSDKNINTAPIFNNTSETIPVLAVLHSTHVKNIDMVYESDIKNTYKHVFNNLNRYSGIIVSTKQQQLDISARINNEIPVHTIPVGYIDEHFTNLKRNNHSINNNKIISVARYSPEKQLNHQIELVSKLIKEFPNIQLHLYGFGKEEEKYKQLITEYNLENNVFLRGFRRNLSAEIQDAYMSLITSNMEGFNLGLLETITEGIPPVGYNSKYGPSELILNNENGYLINKNDKDELYNRVRNLLLDKTLRDTFSQECIKHSKAFSSKIVMKLWEDRFSTINSSYE	not soluble
MKAFILAAGSGERLEPITHTRPKAFVPILSKPLIEYQIEYLRKCGIRDITVIVSSKNKEYFEKKLKEISIVTQKDDIKGTGAAILSAKFNDEALIIYGDLFFSNEKEICNIITLKENAIIGVKVSNPKDYGVLVLDNQNNLSKIIEKPEIPPSNLINAGIYKLNSDIFTYLDKISISERGELELTDAINLMAKDHRVKVIEYEGYWMDIGKPWNIIDVNKWALDNLVFSQNLGNVEDNVKIKGKVIIEEDAEIKSGTYIEGPVYIGKGSEIGPNSYLRPYTILVEKNKIGASVEVKESVIMEGSKIPHLSYVGDSVIAEDVNFGAGTLIANLRFDEKEVKVNVKGKRISSGRRKLGAFIGGHVRTGINVTILPGVKIGAYARIYPGAVVNRDVGYGEFFKV	soluble
MKAIITKPMCVVGDNKSTVRFETSTPNNPFVEISNQVYARLKRANAAKPFVDVKTKIKPDKAVEQIKQIEKEPNQISSETVTEETSLEKPKASKASKPSTPTPKKA	not soluble
MKALNREVIEYFKEHVNPGFLEYRKSVTAGGDYGAVEWQAGSLNTLVDTQGQEFIDCLGGFGIFNVGHRNPVVVSAVQNQLAKQPLHSQELLDPLRAMLAKTLAALTPGKLKYSFFCNSGTESVEAALKLAKAYQSPRGKFTFIATSGAFHGKSLGALSATAKSTFRKPFMPLLPGFRHVPFGNIEAMRTALNECKKTGDDVAAVILEPIQGEGGVILPPPGYLTAVRKLCDEFGALMILDEVQTGMGRTGKMFACEHENVQPDILCLAKALGGGVMPIGATIATEEVFSVLFDNPFLHTTTFGGNPLACAAALATINVLLEQNLPAQAEQKGDMLLDGFRQLAREYPDLVQEARGKGMLMAIEFVDNEIGYNFASEMFRQRVLVAGTLNNAKTIRIEPPLTLTIEQCELVIKAARKALAAMRVSVEEA	not soluble
MKANQLDILIVPGYKGSDPDHWQTRWEKKLSTARRVQQTHWSKPICEEWVNEVKIAIAQSQKPIVIIAHSLGVPTTIHATLKNAEKVRGAFFVAPPDVSNEKIRPKHLMTFGPYHCKKLSFPSVVIASRNDEFCQFSVAEKLAGDWGALFVDAGLSGHINVESGHGPWPEGLMVFSHFLAKI	not soluble
MKANSDELQSFVSVVDSGSISAAAEQMGLTASAVSRTLSRLEHKLGTTLLNRTTRRMELTEEGRYFLDQARQILQQMEALEERLALRRQSPAGRLRINAASPFMLHAVVPHIGEFRRLYPDIQLELNTNDLIIDLLEQRTDVAIRIGALSDSTLHARPLGASRLHILASPEYLARHGTPASIEGLRGHTLLGFTQPEHLNRWPVVHADGDRLEIQPDISASSGETLRQLALSHQGIACLASFMTDRDIQDGRLVPLFAEQMSEYRQPIHAVYYRNSQLALRIQCFLDFIQQRLGA	not soluble
MKAVVQRVTRASVTVGGEQISAIGRGICVLLGISLEDTQKELEHMVRKILNLRVFEDESGKHWSKSVMDKQYEILCVSQFTLQCVLKGNKPDFHLAMPTEQAEGFYNSFLEQLRKTYRPELIKDGKFGAYMQVHIQNDGPVTIELESPAPGTATSDPKQLSKLEKQQQRKEKTRAKGPSESSKERNTPRKEDRSASSGAEGDVSSEREP	soluble
MKDFITEAWLRANHTLSEGAEIHLPADSRLTPSARELLESRHLRIKFIDEQGRLFVDDEQQQPQPVHGLTSSDEHPQACCELCRQPVAKKPDTLTHLSAEKMVAKSDPRLGFRAVLDSTIALAVWLQIELAEPLGCQAIVGLSDEDLHRLSHQPLRYLGHDHLVPEASHGRDAALLNLLRTKVREAETVAAQVFITRSFEVLRPDILQALNRLSSTVYVMMILSVTKQPLTVKQIQQRLGETQ	not soluble
MKDFWTWERLSFHMVLAYNDDRSFLINTGMPLDLTLRNQEMKKFAGDRAIFRSEDSIEMLRKAGFTPDDIDYVALTPVQDYTIGRLNEFRKSKIFIFRDGWIKDIAAPAYAYFHNRDLFIPKNIFDFVYGEGWKNIIFYDGETELVPGIRAIPVGCHHRSSVAFAINAKDGTYVFTDASFKAENVRNRIPIGIAENIYECLSAYEKIEKIGKLLPAYDPAIDDLYIKLEHHHHHH	soluble
MKDILGKTFECSCGKTHEVPDIEILETSIREAPDVFSDAFFIADLNTASLVDLPGKRSFVFNERRPLATMENV	not soluble
MKDNEQKAGSVADQKNKIRERYKGVSIDELDVIPALPQEDIFAVENEQRVAVYARVSTDDPRQTSSYELQKNHYHDVISKSPNWKLVQIYADEGISGTSLQHRDQFKLMIEDCKKGEIDLIVTKSVSRFARNVVDCIGYVRELLALPHPVGVFFETERLNTFDPKSEMVLSFMATLAQEESHTKSEIMNASIEMRFRRGIFLTPTLLGYDHDEDGNLVVNEGEAKIVRLIFMMYLNGCTCQEIADTMTELGCETKKGNTVWSPGSILQILQNERHCGDVLARKTYTPNYLNHKSKKNMQNRPQYRKRNHHEAIISRDDFIAVQRLISNAKYGNKGILPELKVISNGVLKGFVSINPRWAGFKENDYISASLSVYDQMEQLSPSASSVEVQSGDFDLRGYEIARSQFFDGTDRITVTFSLNDIKFSTAAVRKLNSTLVELLLHPNKHLFAVRTASQAHRNAMQWAKKRGELSVPRAVSGTAFMPTVYALLGWNTDCRYRITGIRRGNGNDAVLLFNLEETEIFIPSDVIDEQQTSDARTDVKPLEHHHHHH	soluble
